Laboratory results reported in WO2021032966A1 (dated 2021).

How the values were obtained:
[1] = target: T1, Zn2+-stabilised Ab40 oligomers (UniProt P05067 672-711); experiment: ITC, fit of double subtracted integrated peaks
T1 construct: domain: Ab1-40; Oligomers made by incubating Ab40 with ZnCl2 for 20 hours at 20 C

[2] = target: T1, Zn2+-stabilised Ab40 oligomers; experiment: ITC, DesAb-O injected into Ab40 oligomers, 25 C
[3] = target: T2, human Ab42 species in protein extracts of GMC101 C. elegans worms (human); experiment: indirect ELISA on C. elegans protein extracts, N2 worms as reference
T2 construct: Target present in crude worm protein extracts coated on ELISA wells; also called NIAD-4 negative, toxic Ab42 species; Ab42 oligomers formed in vivo

[4] = target: T3, Ab42 species in hippocampus protein extracts of J20 mice (PDGF-APPSw,Ind) (human); experiment: indirect ELISA on hippocampus protein extracts of J20 mice, normalised to wild-type mice
T3 construct: Target present in crude hippocampus extracts coated on ELISA wells; 6E10 detects total Ab in the same extracts; also called Ab42 oligomers formed in vivo in a mouse model of AD
T3 sequence (peptide, as listed by the source): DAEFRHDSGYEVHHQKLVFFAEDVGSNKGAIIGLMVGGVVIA

T1 sequence (P05067 671-711 limits assumed): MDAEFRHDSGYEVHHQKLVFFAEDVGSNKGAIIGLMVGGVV
T2 sequence (peptide, as listed by the source): as the sequence (peptide, as listed by the source) above

B1: DesAb-O (VHH)
VHH: EVQLVESGGGLVQPGGSLRLSCAASGFNIKDTYIGWVRRAPGKGEEWVASIYPTNGYTRYADSVKGRFTISADTSKNTAYLQMNSLRAEDTAVYYCAAGSESAFGRAEEEAAAWGQGTLVTVSS
notes: Rationally designed single-domain antibody (VH domain), expressed in E. coli, purified by Ni2+ chromatography and detected with an anti-6X His tag antibody; also called DesAb-0; Des-Ab-0
Question: With B1 as the binder, how does the “DH (ITC fit)” value [1] read?
Answer: -12.7 kcal/mol

Question: What about the Kd [1] of the same binder?
Answer: 440 nM

Question: And the Kd [2]?
Answer: ~500 nM

Question: Does B1 bind [3]?
Answer: binds

Question: Does B1 bind [4]?
Answer: binds
